From patent publication US20190134606A1

Target: Fab fragment derived from the humanized anti-IgE monoclonal IgG omalizumab ("Xolair", Novartis), made by papain digestion
Test: column breakthrough, 1 mg/mL Fab, HiTrap Protein L column, ligand density 10 mg/mL-gel from the manual

55% DBC: 21.7 mg/mL-gel
Substance: Protein L ligand of the commercially available Protein L carrier ("HiTrap Protein L" manufactured by GE Healthcare)
